Experimental data published in patent US7897364.
Changes are numbered by the printed parent chain.

T1: agrin-C45
T1 chain: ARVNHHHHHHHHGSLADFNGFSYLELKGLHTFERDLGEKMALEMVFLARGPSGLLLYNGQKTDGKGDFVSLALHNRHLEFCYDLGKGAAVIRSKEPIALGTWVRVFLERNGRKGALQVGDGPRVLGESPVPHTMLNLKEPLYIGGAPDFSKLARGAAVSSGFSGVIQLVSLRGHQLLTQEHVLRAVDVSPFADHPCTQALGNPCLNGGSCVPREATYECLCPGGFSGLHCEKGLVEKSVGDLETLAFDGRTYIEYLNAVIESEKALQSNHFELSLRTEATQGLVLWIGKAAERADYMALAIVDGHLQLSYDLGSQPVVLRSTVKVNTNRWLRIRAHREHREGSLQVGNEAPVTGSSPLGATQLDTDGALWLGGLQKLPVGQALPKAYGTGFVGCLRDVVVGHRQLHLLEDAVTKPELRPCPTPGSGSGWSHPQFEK

B1: mouse neurotrypsin (protein)
chain: DPVSRSPLHRPHPSPPRSQHAHYLPSSRRPPRTPRFPLPLRIPAAQRPQVLSTGHTPPTIPRRCGAGESWGNATNLGVPCLHWDEVPPFLERSPPASWAELRGQPHNFCRSPDGSGRPWCFYRNAQGKVDWGYCDCGQGPALPVIRLVGGNSGHEGRVELYHAGQWGTICDDQWDNADADVICRQLGLSGIAKAWHQAHFGEGSGPILLDEVRCTGNELSIEQCPKSSWGEHNCGHKEDAGVSCVPLTDGVIRLAGGKSTHEGRLEVYYKGQWGTVCDDGWTEMNTYVACRLLGFKYGKQSSVNHFDGSNRPIWLDDVSCSGKEVSFIQCSRRQWGRHDCSHREDVGLTCYPDSDGHRLSPGFPIRLVDGENKKEGRVEVFVNGQWGTICDDGWTDKHAAVICRQLGYKGPARARTMAYFGEGKGPIHMDNVKCTGNEKALADCVKQDIGRHNCRHSEDAGVICDYLEKKASSSGNKEMLSSGCGLRLLHRRQKRIIGGNNSLRGAWPWQASLRLRSAHGDGRLLCGATLLSSCWVLTAAHCFKRYGNNSRSYAVRVGDYHTLVPEEFEQEIGVQQIVIHRNYRPDRSDYDIALVRLQGPGEQCARLSTHVLPACLPLWRERPQKTASNCHITGWGDTGRAYSRTLQQAAVPLLPKRFCKERYKGLFTGRMLCAGNLQEDNRVDSCQGDSGGPLMCEKPDESWVVYGVTSWGYGCGVKDTPGVYTRVPAFVPWIKSVTSL
B2: catalytically inactive neurotrypsin (Neurotrypsin Ser711Ala) (protein)
chain: B1 chain with S690A
B3: human neurotrypsin (protein)
chain: FDSVLNDSLHHSHRHSPPAGPHYPYYLPTQQRPPRTRPPPPLPRFPRPPRALPAQRPHALQAGHTPRPHPWGCPAGEPWVSVTDFGAPCLRWAEVPPFLERSPPASWAQLRGQRHNFCRSPDGAGRPWCFYGDARGKVDWGYCDCRHGSVRLRGGKNEFEGTVEVYASGVWGTVCSSHWDDSDASVICHQLQLGGKGIAKQTPFSGLGLIPIYWSNVRCRGDEENILLCEKDIWQGGVCPQKMAAAVTCSFSHGPTFPIIRLAGGSSVHEGRVELYHAGQWGTVCDDQWDDADAEVICRQLGLSGIAKAWHQAYFGEGSGPVMLDEVRCTGNELSIEQCPKSSWGEHNCGHKEDAGVSCTPLTDGVIRLAGGKGSHEGRLEVYYRGQWGTVCDDGWTELNTYVVCRQLGFKYGKQASANHFEESTGPIWLDDVSCSGKETRFLQCSRRQWGRHDCSHREDVSIACYPGGEGHRLSLGFPVRLMDGENKKEGRVEVFINGQWGTICDDGWTDKDAAVICRQLGYKGPARARTMAYFGEGKGPIHVDNVKCTGNERSLADCIKQDIGRHNCRHSEDAGVICDYFGKKASGNSNKESLSSVCGLRLLHRRQKRIIGGKNSLRGGWPWQVSLRLKSSHGDGRLLCGATLLSSCWVLTAAHCFKRYGNSTRSYAVRVGDYHTLVPEEFEEEIGVQQIVIHREYRPDRSDYDIALVRLQGPEEQCARFSSHVLPACLPLWRERPQKTASNCYITGWGDTGRAYSRTLQQAAIPLLPKRFCEERYKGRFTGRMLCAGNLHEHKRVDSCQGDSGGPLMCERPGESWVVYGVTSWGYGCGVKDSPGVYTKVSAFVPWIKSVTKL

How the values were obtained:
[1] = molecular target: rat agrin, transmembrane isoform containing the splice variants Y4 and Z8, P25304
[2] = molecular target: agrin (endogenous, in mouse spinal cord and brain), A2ASQ1
agrin-C45 = molecular target: T1, agrin-C45

Chain of rat agrin, transmembrane isoform containing the splice variants Y4 and Z8, P25304 (P25304 whole entry, looked up, change not shown, canonical isoform): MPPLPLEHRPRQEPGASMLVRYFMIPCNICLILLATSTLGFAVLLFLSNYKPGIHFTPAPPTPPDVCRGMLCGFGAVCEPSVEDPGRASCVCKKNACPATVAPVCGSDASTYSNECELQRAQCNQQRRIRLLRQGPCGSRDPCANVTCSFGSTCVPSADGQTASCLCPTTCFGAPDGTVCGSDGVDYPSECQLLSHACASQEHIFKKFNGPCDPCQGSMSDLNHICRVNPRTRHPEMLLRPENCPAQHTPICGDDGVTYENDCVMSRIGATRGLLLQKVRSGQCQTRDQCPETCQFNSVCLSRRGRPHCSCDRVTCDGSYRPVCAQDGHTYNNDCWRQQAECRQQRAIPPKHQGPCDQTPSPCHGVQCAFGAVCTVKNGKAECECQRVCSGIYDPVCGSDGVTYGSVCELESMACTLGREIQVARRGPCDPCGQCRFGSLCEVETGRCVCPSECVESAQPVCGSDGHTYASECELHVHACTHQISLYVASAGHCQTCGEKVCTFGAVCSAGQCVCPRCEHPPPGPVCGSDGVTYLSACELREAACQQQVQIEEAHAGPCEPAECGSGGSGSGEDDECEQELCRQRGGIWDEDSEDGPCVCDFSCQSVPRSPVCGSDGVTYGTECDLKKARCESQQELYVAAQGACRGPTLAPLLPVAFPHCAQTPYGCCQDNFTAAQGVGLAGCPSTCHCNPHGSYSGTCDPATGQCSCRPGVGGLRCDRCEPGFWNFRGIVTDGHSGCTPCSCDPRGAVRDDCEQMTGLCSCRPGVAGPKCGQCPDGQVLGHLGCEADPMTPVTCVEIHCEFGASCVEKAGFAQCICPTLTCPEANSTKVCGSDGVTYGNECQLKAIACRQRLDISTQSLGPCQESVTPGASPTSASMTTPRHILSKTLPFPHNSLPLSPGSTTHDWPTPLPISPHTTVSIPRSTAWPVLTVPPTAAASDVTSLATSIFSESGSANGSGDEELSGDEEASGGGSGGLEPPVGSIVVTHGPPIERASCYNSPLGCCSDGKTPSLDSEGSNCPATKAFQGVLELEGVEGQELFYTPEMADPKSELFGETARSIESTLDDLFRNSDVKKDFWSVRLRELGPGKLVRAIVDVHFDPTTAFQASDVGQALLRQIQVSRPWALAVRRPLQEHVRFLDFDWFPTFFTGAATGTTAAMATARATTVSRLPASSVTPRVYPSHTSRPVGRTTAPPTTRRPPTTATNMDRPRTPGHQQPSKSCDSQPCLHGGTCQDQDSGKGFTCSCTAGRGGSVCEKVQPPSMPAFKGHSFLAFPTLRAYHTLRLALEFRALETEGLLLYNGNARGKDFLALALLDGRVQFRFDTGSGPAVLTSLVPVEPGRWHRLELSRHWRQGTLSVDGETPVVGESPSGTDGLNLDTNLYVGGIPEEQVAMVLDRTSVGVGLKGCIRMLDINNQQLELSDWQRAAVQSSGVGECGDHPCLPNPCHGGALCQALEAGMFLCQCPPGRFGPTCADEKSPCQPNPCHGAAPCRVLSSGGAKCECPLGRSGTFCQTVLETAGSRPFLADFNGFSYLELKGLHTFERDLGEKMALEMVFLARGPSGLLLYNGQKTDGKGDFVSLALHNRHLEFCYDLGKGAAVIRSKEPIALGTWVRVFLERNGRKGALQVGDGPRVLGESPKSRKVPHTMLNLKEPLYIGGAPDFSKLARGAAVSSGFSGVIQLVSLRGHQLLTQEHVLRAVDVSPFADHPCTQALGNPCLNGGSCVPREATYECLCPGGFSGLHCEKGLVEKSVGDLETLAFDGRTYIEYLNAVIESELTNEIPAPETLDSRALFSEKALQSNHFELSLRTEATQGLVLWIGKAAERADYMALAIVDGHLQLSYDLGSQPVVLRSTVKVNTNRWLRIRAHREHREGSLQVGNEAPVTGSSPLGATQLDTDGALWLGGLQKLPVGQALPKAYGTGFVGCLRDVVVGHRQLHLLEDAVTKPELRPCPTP
Chain of agrin (endogenous, in mouse spinal cord and brain), A2ASQ1 (A2ASQ1 whole entry): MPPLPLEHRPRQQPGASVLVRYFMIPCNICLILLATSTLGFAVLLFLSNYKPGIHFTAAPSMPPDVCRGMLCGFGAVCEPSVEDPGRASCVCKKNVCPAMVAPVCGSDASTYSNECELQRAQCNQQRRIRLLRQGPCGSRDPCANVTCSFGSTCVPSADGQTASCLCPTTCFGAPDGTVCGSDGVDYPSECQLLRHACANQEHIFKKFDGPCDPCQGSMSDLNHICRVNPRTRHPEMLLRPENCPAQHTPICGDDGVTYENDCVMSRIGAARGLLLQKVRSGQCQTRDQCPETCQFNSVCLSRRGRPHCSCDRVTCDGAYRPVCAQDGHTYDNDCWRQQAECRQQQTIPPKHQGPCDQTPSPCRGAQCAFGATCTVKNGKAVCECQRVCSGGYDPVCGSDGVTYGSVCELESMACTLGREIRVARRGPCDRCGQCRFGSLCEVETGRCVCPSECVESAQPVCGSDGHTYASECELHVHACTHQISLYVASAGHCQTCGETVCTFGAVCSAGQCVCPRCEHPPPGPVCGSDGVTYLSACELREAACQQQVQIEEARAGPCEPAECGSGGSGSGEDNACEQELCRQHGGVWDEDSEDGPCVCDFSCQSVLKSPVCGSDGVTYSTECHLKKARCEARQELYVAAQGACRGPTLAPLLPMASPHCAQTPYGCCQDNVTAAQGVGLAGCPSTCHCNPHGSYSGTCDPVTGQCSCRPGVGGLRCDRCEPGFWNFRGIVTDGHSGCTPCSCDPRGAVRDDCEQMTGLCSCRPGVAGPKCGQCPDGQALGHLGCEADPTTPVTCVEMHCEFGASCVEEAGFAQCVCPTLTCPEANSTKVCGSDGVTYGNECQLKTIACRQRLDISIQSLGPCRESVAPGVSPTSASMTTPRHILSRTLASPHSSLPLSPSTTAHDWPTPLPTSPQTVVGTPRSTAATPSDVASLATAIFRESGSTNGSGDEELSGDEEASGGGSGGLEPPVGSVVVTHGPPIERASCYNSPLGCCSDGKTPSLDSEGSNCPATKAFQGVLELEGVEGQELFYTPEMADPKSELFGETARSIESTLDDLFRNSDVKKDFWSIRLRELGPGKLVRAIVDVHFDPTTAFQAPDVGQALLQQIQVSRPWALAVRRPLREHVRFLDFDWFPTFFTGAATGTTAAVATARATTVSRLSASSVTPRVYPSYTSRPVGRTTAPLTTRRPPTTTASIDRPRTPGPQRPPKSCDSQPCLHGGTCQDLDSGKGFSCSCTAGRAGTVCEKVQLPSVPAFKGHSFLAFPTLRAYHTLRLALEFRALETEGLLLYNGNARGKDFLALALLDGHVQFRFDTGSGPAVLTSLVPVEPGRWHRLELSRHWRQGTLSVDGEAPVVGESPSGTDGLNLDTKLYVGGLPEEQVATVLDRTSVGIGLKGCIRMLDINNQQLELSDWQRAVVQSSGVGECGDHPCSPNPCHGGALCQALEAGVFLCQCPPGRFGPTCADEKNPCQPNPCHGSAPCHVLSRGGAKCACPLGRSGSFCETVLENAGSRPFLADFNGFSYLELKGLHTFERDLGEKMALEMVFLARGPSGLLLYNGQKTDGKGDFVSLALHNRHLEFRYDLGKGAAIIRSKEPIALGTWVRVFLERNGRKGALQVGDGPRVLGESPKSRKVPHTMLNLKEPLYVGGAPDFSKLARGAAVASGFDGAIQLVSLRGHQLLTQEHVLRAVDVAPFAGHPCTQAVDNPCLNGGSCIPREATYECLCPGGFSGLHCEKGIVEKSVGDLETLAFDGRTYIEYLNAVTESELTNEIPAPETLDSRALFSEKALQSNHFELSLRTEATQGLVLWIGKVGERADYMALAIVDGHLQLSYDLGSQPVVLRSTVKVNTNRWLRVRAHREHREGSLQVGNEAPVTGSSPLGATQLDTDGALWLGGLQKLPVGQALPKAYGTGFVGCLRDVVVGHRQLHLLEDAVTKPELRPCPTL

| Protein | release of a 100-kDa agrin fragment into the culture medium (Western blot) [1] | 150 kDa C-terminal fragment of agrin-EGFP (Western blot) (agrin-EGFP) | temporal pattern of the C-terminal 100-kDa agrin fragment and of neurotrypsin in mouse spinal cord (Western blot) [2] | cleavage of purified agrin-C45 by purified neurotrypsin (silver stained SDS-PAGE) (agrin-C45) | cleavage of purified agrin-EGFP by purified neurotrypsin (SDS-PAGE, Western blot) (agrin-EGFP) |
| --- | --- | --- | --- | --- | --- |
| B1 | In 200 µl culture medium of double transfected HEK293T cells a 100-kDa band was detected with the anti-agrin antibody | Western blot detection of the 150 kDa C-terminal fragment of agrin (Ag-CF) generated by neurotrypsin-mediated cleavage of agrin-EGFP | Western blotting with antibodies versus the C-terminal moiety of agrin revealed a highly similar temporal pattern |  |  |
| B2 | no signal was detected in medium of HEK293T cells transfected with agrin and catalytically inactive neurotrypsin |  |  |  |  |
| B3 |  |  |  | The cleavage products agrin-C45 are found between 20 and 25 kDa | Lane 2 shows the agrin-EGFP (indicated by arrow marked Ag-EGPF) and the C-terminal fragment of approximately 150 kDa generated by neurotrypsin activity |
